Data: PMC5612244

What was measured:
[1] = biological target: recombinant EsGLUT4 extracellular region (between TM1 and TM2) (Eriocheir sinensis); assay: BLI; ForteBio Octet RED96; biotinylated rEsGLUT4 region (50 µg/ml) immobilised on streptavidin (SA) sensors; four serial concentrations of CHHBP, highest 1 µM (intracellular region) and 0.38 µM (extracellular region); association 300 s, dissociation 600 s; room temperature; physiological saline for crab
[2] = biological target: recombinant EsGLUT4 intracellular region (between TM6 and TM7) (Eriocheir sinensis); assay: as above

Substance: recombinant CHH binding protein (CHHBP), an E. sinensis flotillin-like protein (natural protein)
- Kd [1]: 2.52 nM
- Kd [2]: 6.81 nM
